The experiment has as its target human EpCAM (human) (UniProt P16422). Put plainly: binding affinity, method not stated.
Sequence of UniProt P16422 (P16422 24-265 limits assumed): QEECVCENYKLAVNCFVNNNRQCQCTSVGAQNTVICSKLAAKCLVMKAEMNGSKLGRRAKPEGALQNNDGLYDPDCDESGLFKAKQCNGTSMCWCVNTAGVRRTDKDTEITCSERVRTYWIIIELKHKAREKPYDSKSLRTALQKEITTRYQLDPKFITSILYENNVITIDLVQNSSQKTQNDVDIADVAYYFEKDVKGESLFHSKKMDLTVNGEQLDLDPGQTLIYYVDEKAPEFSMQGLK

B1: hVIB-13 (VHH)
VHH: QVQLVESGGGLVQPGGSLTLSCAASGTGSIFSINLMGWYRQAPGKQRELVARITSGDSTVYADSVKGRFTISRDNSKNTLYLQMNSLRPEDTAVYYCNLLLRSSPGATTPYWGQGTLVTVSS
In turn, B1 yielded a Kd of 2.8 nM.

What is called Kd is the free concentration of one partner at which half of the binding sites on the other are occupied at equilibrium, for simple one-to-one binding.
